Measured values: patent US20040136982A1

What was measured:
[1] = target: FLAG-sBST2-GST (human) (UniProt Q10589); test: ELISA, plate coated with FLAG-sBST2-GST, control IgG1 (κ)
[2] = target: FLAG-sBST2-GST (human) (UniProt Q10589); test: ELISA, plate coated with FLAG-sBST2-GST, control IgG4 (κ)

Chain of FLAG-sBST2-GST (human) (Q10589 other isoform, or with tags, fused parts or gaps): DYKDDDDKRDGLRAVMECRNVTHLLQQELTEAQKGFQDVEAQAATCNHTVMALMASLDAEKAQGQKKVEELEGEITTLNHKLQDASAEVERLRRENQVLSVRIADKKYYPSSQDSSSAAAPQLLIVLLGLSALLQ

Row | A450 nm/A570 nm [1] [absorbance] | A450 nm/A570 nm [2] [absorbance] | Substance
1 | 0.014 |  | Control IgG1 (κ) (antibody)
2 |  | 0.013 | Control IgG4 (κ) (antibody)
